B1: Thermotoga maritima TsaD (natural protein, UniProt Q9WXZ2 1-327, looked up)
chain: MRVLGIETSCDETAVAVLDDGKNVVVNFTVSQIEVHQKFGGVVPEVAARHHLKNLPILLKKAFEKVPPETVDVVAATYGPGLIGALLVGLSAAKGLAISLEKPFVGVNHVEAHVQAVFLANPDLKPPLVVLMVSGGHTQLMKVDEDYSMEVLGETLDDSAGEAFDKVARLLGLGYPGGPVIDRVAKKGDPEKYSFPRPMLDDDSYNFSFAGLKTSVLYFLQREKGYKVEDVAASFQKAVVDILVEKTFRLARNLGIRKIAFVGGVAANSMLREEVRKRAERWNYEVFFPPLELCTDNALMVAKAGYEKAKRGMFSPLSLNADPNLNV
B2: Thermotoga maritima TsaB (natural protein, UniProt Q9WZX7 1-206, looked up)
chain: MNVLALDTSQRIRIGLRKGEDLFEISYTGEKKHAEILPVVVKKLLDELDLKVKDLDVVGVGIGPGGLTGLRVGIATVVGLVSPYDIPVAPLNSFEMTAKSCPADGVVLVARRARKGYHYCAVYLKDKGLNPLKEPSVVSDEELEEITKEFSPKIVLKDDLLISPAVLVEESERLFREKKTIHYYEIEPLYLQKSIAELNWEKKKRG

Tests used:
SEC = molecular target: the molecule itself; experiment: SEC
Thermotoga maritima TsaD = molecular target: B1; experiment: native gel or EMSA

Binder | stoichiometry N (SEC) | binding result (Thermotoga maritima TsaD)
B1 | 2 | –
B2 | 2 | binds
